Source: the supplement of paper PMC12764529
± gives the half width of the 95% confidence interval.

Experiments:
[1] = folding stability dG unfold from trypsin proteolysis; higher = more stable
In short: (§1)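 Only designs with AlphaFold2 dimer inter-PAE above 15 were retained; each was a mini-protein under 80 residues with no cysteine, in a PA-tagged cDNA display construct. After digestion with trypsin and chymotrypsin and sequencing, K50 was inferred by Bayesian fitting of counts, and unfolding free energy was derived per protease or combined against a sequence-predicted unfolded-state K50 and a shared folded-state K50.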

[2] = folding stability dG unfold from chymotrypsin proteolysis; higher = more stable
In short: as §1

[3] = folding stability dG unfold (combined trypsin and chymotrypsin); higher = more stable
In short: as §1

## SAPIVIPAKAGSPENVLKAIKEAKELASKGKKVYLPILTKDGPIFFEVDPKTKTIKIYNPKTGEKKDLSSAG [r14_423_TrMRF]
[1]
  folding stability dG unfold: 1.45 ± 0.032 kcal/mol
[2]
  folding stability dG unfold: 1.04 ± 0.07 kcal/mol
[3]
  folding stability dG unfold: 1.25 ± 0.16 kcal/mol

## SAPKIEILEVDPNRVLIKIDATPEEIEKIVEEIKKKFPGVKVETEKLEGEKKYLIKVIPVPEVPEELKKSAG [r14_600_TrMRF]
[1]
  folding stability dG unfold: 0.0352 ± 0.067 kcal/mol
[2]
  folding stability dG unfold: 1.44 ± 0.016 kcal/mol
[3]
  folding stability dG unfold: 1.1 ± 0.14 kcal/mol

## SAPKILKVETFPDGSIKVEIPLPETGAIVTITVDPDGNVVVEFYPPKSGKPVRKTIPGKTIEEVLKELGSAG [r14_760_TrMRF]
[1]
  folding stability dG unfold: 1.41 ± 0.086 kcal/mol
[2]
  folding stability dG unfold: 1.83 ± 0.052 kcal/mol
[3]
  folding stability dG unfold: 1.63 ± 0.12 kcal/mol

## SAPLEQLLEFAEEFAQAYGYRVEIEVYRNGEPKGTYEIPMPKPGQPPVSIMIRIPDPNLYIHVTIYMPRSAG [r14_728_TrROS]
[1]
  folding stability dG unfold: 2.16 ± 0.071 kcal/mol
[2]
  folding stability dG unfold: 3.07 ± 0.041 kcal/mol
[3]
  folding stability dG unfold: 2.75 ± 0.11 kcal/mol

## SAPLSEEEARQLLEEVAEELERETGASYRVELFRDPATGRWFGRIELPDGRVYTVTYDPATGEVTVTVEASA [r9_9_JUSTAS]
[1]
  folding stability dG unfold: 4.25 ± 0.1 kcal/mol
[2]
  folding stability dG unfold: 5.62 ± 0.069 kcal/mol
[3]
  folding stability dG unfold: 5.62 ± 0.11 kcal/mol

## SAPPDDWKPVTIPILIPFDSVEDAKEWVIELANELAKKHGWRINIDVDIEPVPNRYYIKIPITIYVPKKSAG [r14_626_TrROS]
[1]
  folding stability dG unfold: 2.39 ± 0.19 kcal/mol
[2]
  folding stability dG unfold: 2.42 ± 0.18 kcal/mol
[3]
  folding stability dG unfold: 2.47 ± 0.31 kcal/mol

## SAPPKTRTREIEIRFDDYYVRIKITWTKDGNLKLDIEFQGPNPVMREQIKDFLEELNPDFEITDIEVYRSAG [r14_611_TrROS]
[1]
  folding stability dG unfold: 2.13 ± 0.14 kcal/mol
[2]
  folding stability dG unfold: 2.67 ± 0.057 kcal/mol
[3]
  folding stability dG unfold: 2.38 ± 0.3 kcal/mol

## SAPPYYIVIKFKMELPPPTPEDAKEYDPDGEVRRTTVEMTFVIPIPPEDLEDLKDFMQSLGIEEIEIFKSAG [r14_509_TrROS]
[1]
  folding stability dG unfold: 2.05 ± 0.087 kcal/mol
[2]
  folding stability dG unfold: 2.75 ± 0.032 kcal/mol
[3]
  folding stability dG unfold: 2.56 ± 0.15 kcal/mol

## SAPQIVEVKEYDPVSKTYTILAETPEGPLTVPVPAGGDTTVEEAIEQVKEYFEKTLPPGVELEIEKILLSAG [r14_422_JUSTAS]
[1]
  folding stability dG unfold: 0.355 ± 0.08 kcal/mol
[2]
  folding stability dG unfold: 0.271 ± 0.14 kcal/mol
[3]
  folding stability dG unfold: 0.418 ± 0.093 kcal/mol

## SAPWRITDIDVKRHPNGRVRVTIRFPHPNMSVEIWLDKDGELDVEVSPDMRNHPPWFQNMIRDVAKELLSAG [r14_555_TrROS]
[1]
  folding stability dG unfold: 2.77 ± 0.1 kcal/mol
[2]
  folding stability dG unfold: 1.33 ± 0.11 kcal/mol
[3]
  folding stability dG unfold: 2.15 ± 0.1 kcal/mol

## SARIRIMVPPDFIMVRTPKGKMRMVDDPEEIEEIIKDILPVPIEIEPLPPNSPKFQKMMEMMMREQNGPSAG [r14_235_TrROS]
[1]
  folding stability dG unfold: -0.264 ± 0.48 kcal/mol
[2]
  folding stability dG unfold: 0.158 ± 0.23 kcal/mol
[3]
  folding stability dG unfold: 0.0355 ± 0.18 kcal/mol

## SASFTLTPVTVTLSPDPETGAILAPVLATAGDHPVFGLAYVDPLDPSRAYYRIYYPPSDLVEYAVVPLPSAG [r14_178_TrMRF]
[1]
  folding stability dG unfold: 0.469 ± 0.066 kcal/mol
[2]
  folding stability dG unfold: 0.847 ± 0.15 kcal/mol
[3]
  folding stability dG unfold: 0.722 ± 0.097 kcal/mol

## SASLEELLAELPFDAEVETKDEEVVVKITNPENPDPNVSYTFNIPSSSGVPITVNVTEVEGGTKSVKALSAG [r14_401_JUSTAS]
[1]
  folding stability dG unfold: -0.448 ± 0.15 kcal/mol
[2]
  folding stability dG unfold: -0.108 ± 0.24 kcal/mol
[3]
  folding stability dG unfold: -0.172 ± 0.21 kcal/mol

## SASMEAALAKVEEITAEPSWELVGVSPEGVFTIRNPETGTEIVIEIKVTSDGKGYKVTIPSKTVVPAPESAG [r14_20_JUSTAS]
[1]
  folding stability dG unfold: 1.45 ± 0.096 kcal/mol
[2]
  folding stability dG unfold: 1.3 ± 0.13 kcal/mol
[3]
  folding stability dG unfold: 1.38 ± 0.12 kcal/mol

## SASNKPRTIEVPIMIPPDDLKEHSPEEFIDWIANELGLPPGKDIKIDVDIEPFEHDGRPYYIIPARIQVSAG [r14_334_TrROS]
[1]
  folding stability dG unfold: -0.362 ± 0.2 kcal/mol
[2]
  folding stability dG unfold: -0.294 ± 0.32 kcal/mol
[3]
  folding stability dG unfold: -0.231 ± 0.22 kcal/mol

## SASPALELAKEIAEKIEPLFPDISPVEVTVTPRGSTALGTIKFKRPDGKELVAKMIVSAGGDPVEIILLSAG [r14_719_JUSTAS]
[1]
  folding stability dG unfold: 1.56 ± 0.14 kcal/mol
[2]
  folding stability dG unfold: 1.26 ± 0.25 kcal/mol
[3]
  folding stability dG unfold: 1.51 ± 0.21 kcal/mol

## SASPEDTVTTTETEPTTISLGTASIPPDLEVLSVTVTTTTTTTYKVEPPGVPVKLSSTTTTTTTVTLKRTSA [r9_747_JUSTAS]
[1]
  folding stability dG unfold: 2.79 ± 0.3 kcal/mol
[2]
  folding stability dG unfold: 2.45 ± 0.1 kcal/mol
[3]
  folding stability dG unfold: 2.69 ± 0.38 kcal/mol

## SASPELRKLAEEAAERLVKELGVEKLEFTFTAPVLRPVYTYDPGGNKTPRLEEEIVTYSVTAVVPPEAASAG [r14_232_TrMRF]
[1]
  folding stability dG unfold: -0.0655 ± 0.14 kcal/mol
[2]
  folding stability dG unfold: -0.21 ± 0.31 kcal/mol
[3]
  folding stability dG unfold: -0.0957 ± 0.2 kcal/mol

## SASPPRRFMIKVTYPDGKTTLSYGDDPEQTRAALEAQIAEEHPGNYTIEYTELSPDEWASPEKAEALLSSAG [r14_900_JUSTAS]
[1]
  folding stability dG unfold: 2.27 ± 0.034 kcal/mol
[2]
  folding stability dG unfold: 1.71 ± 0.073 kcal/mol
[3]
  folding stability dG unfold: 2.01 ± 0.078 kcal/mol

## SASPSETTTYTVELTSTDPSLTPEDLAERAREEFEAALPPGTRVEVEVVSVTPIPETGTTRYTIRITVRRSA [r9_706_JUSTAS]
[1]
  folding stability dG unfold: 5.18 ± 0.1 kcal/mol
[2]
  folding stability dG unfold: 4.26 ± 0.046 kcal/mol
[3]
  folding stability dG unfold: 4.55 ± 0.027 kcal/mol

## SASVEEVIEEAKELAKKLGAYVIVTVYKNNKKIGTYEYPSPSKNSPPTSITIESPDPNYKVKITIYPPGSAG [r14_728_JUSTAS]
[1]
  folding stability dG unfold: 2.53 ± 0.062 kcal/mol
[2]
  folding stability dG unfold: 3.12 ± 0.032 kcal/mol
[3]
  folding stability dG unfold: 2.94 ± 0.092 kcal/mol

## SATETLTVVETRTVRDPAVPGTTTTETRVTEVTRPAPPPPPLSAEELARALAEAGLLERTDDGELKVVLSAG [r14_582_TrROS_Hall]
[1]
  folding stability dG unfold: -0.559 ± 0.25 kcal/mol
[2]
  folding stability dG unfold: -0.276 ± 0.11 kcal/mol
[3]
  folding stability dG unfold: -0.567 ± 0.43 kcal/mol

## SATFKPGETVTIDELTIDGATITKVTVTVNADGTITITATIKPAPPPPPPPEVVRNPETGKTYPAGEVKDSA [r9_603_TrROS_Hall]
[1]
  folding stability dG unfold: 1.87 ± 0.19 kcal/mol
[2]
  folding stability dG unfold: 0.615 ± 0.087 kcal/mol
[3]
  folding stability dG unfold: 1.34 ± 0.23 kcal/mol

## SATFRLPNGKTISIMAPLPPGEMTPDQVISMARMIVRNIFPPGKKVEVKIEVEQYPNGMVHVKIPIKAESAG [r14_389_TrROS]
[1]
  folding stability dG unfold: 0.0799 ± 0.31 kcal/mol
[2]
  folding stability dG unfold: 0.312 ± 0.28 kcal/mol
[3]
  folding stability dG unfold: 0.406 ± 0.4 kcal/mol

## SATIEIPIKVNDRKFRISIERMPDGWIKIQIRDPNMPKDAVKDALREILGPGWKIDTDPETNTIYIPFKSAG [r14_370_TrROS]
[1]
  folding stability dG unfold: 2.41 ± 0.061 kcal/mol
[2]
  folding stability dG unfold: 2.77 ± 0.027 kcal/mol
[3]
  folding stability dG unfold: 2.67 ± 0.059 kcal/mol

## SATKEIEIEVNGRKLRIRIERKEDGSIKITIELPGMSAEEVKEALRKLLPPDAKITVDEITVTEYREEPSAG [r14_370_TrROS_Hall]
[1]
  folding stability dG unfold: 3.14 ± 0.17 kcal/mol
[2]
  folding stability dG unfold: 2.43 ± 0.17 kcal/mol
[3]
  folding stability dG unfold: 2.84 ± 0.3 kcal/mol

## SATREIELPGKKITIHHNPGNNMFRITIYDPKPGKPVEIPIPANNPGMTMENIIDQIREAAKKGRPVRISAG [r14_157_TrROS]
[1]
  folding stability dG unfold: 0.85 ± 0.036 kcal/mol
[2]
  folding stability dG unfold: 0.671 ± 0.079 kcal/mol
[3]
  folding stability dG unfold: 0.885 ± 0.082 kcal/mol

## SATTTLNLSSVEELKELVEKLIAEGNPEATLTVTLYPPSGESSTKSFSSVEEVIEELKKGPASVTITVTSSA [r9_589_JUSTAS]
[1]
  folding stability dG unfold: 2.18 ± 0.045 kcal/mol
[2]
  folding stability dG unfold: 2.7 ± 0.022 kcal/mol
[3]
  folding stability dG unfold: 2.56 ± 0.049 kcal/mol

## SATVTLVSVEKEGDKTTVTTRDPSGYTVTVTNPDGSIVLAPIPAEGAEAAIAAIKAAHPGVTVTLEAAASAG [r14_528_JUSTAS]
[1]
  folding stability dG unfold: 0.617 ± 0.036 kcal/mol
[2]
  folding stability dG unfold: 1.24 ± 0.031 kcal/mol
[3]
  folding stability dG unfold: 1.15 ± 0.11 kcal/mol

## SAVEIEFWFPGGMSVEEFVNEFSKILPGLRDVDIGVEPYPETDMWKVTATIRIVPPPSPEDQEEMQKNKSAG [r14_645_TrROS]
[1]
  folding stability dG unfold: 1.38 ± 0.07 kcal/mol
[2]
  folding stability dG unfold: 1.7 ± 0.051 kcal/mol
[3]
  folding stability dG unfold: 1.62 ± 0.1 kcal/mol

## SAVELPPDASITAVTVDPSGSRTVEVEVKTTTAYVYDPATGTTTTVPPGVRTVVTLPADVPVTVSFTSPSAG [r14_385_JUSTAS]
[1]
  folding stability dG unfold: 0.252 ± 0.099 kcal/mol
[2]
  folding stability dG unfold: 0.484 ± 0.084 kcal/mol
[3]
  folding stability dG unfold: 0.413 ± 0.085 kcal/mol

## SAVINIEAWFPPGKSVEEAVDEAKNIIHQFGFEIDDVDVERDPNGWVRVDFTIKIKPPMPPEQRKKLQDSAG [r14_110_TrROS]
[1]
  folding stability dG unfold: 1.25 ± 0.051 kcal/mol
[2]
  folding stability dG unfold: 2.91 ± 0.091 kcal/mol
[3]
  folding stability dG unfold: 2.45 ± 0.26 kcal/mol

## SAVIPLEELARKVAEELGLEPVEVLEVIPEEGVVVMRFEGAVIVVKVDPETGEAEVEIVVFDPETGKPVSAG [r14_270_TrMRF]
[1]
  folding stability dG unfold: 2.82 ± 0.11 kcal/mol
[2]
  folding stability dG unfold: 3.35 ± 0.063 kcal/mol
[3]
  folding stability dG unfold: 3.16 ± 0.085 kcal/mol

## SAVITYPIPDDKPTLILEPLPGSESLLILSTKREKIPNGTYKVEALVVRYEPALGASVEEKVELIEPIGSAG [r14_591_JUSTAS]
[1]
  folding stability dG unfold: -0.819 ± 0.46 kcal/mol
[2]
  folding stability dG unfold: -0.216 ± 0.56 kcal/mol
[3]
  folding stability dG unfold: -0.239 ± 0.22 kcal/mol

## SAVPLELPLSDEELRELLEKHSVDSTITLTLKVGDRWVRVTVTLKEVKREPNRLSVSVELTVTPLPPEESAG [r14_335_JUSTAS]
[1]
  folding stability dG unfold: 2.86 ± 0.07 kcal/mol
[2]
  folding stability dG unfold: 4.08 ± 0.051 kcal/mol
[3]
  folding stability dG unfold: 3.81 ± 0.13 kcal/mol

## SAVPLSEEELEALLEEKAKEKAEEILKENPELPPGAVIKIKVEYEQEVVLEDKVEPVKYEREVEYKVPLSAG [r14_486_JUSTAS]
[1]
  folding stability dG unfold: 0.00158 ± 0.12 kcal/mol
[2]
  folding stability dG unfold: -0.503 ± 0.76 kcal/mol
[3]
  folding stability dG unfold: -0.0614 ± 0.44 kcal/mol
